Data published in patent US20210030857A1 (NGM BIOPHARMACEUTICALS, published 2021).

Legend:
[1] = biological target: T1, human beta klotho expressed on cells (human, UniProt Q86Z14 1-1044); assay: FACS on transfected Expi293 cells
T1 construct: also called HuKLB overexpressing cells; Human KLB
T1 sequence: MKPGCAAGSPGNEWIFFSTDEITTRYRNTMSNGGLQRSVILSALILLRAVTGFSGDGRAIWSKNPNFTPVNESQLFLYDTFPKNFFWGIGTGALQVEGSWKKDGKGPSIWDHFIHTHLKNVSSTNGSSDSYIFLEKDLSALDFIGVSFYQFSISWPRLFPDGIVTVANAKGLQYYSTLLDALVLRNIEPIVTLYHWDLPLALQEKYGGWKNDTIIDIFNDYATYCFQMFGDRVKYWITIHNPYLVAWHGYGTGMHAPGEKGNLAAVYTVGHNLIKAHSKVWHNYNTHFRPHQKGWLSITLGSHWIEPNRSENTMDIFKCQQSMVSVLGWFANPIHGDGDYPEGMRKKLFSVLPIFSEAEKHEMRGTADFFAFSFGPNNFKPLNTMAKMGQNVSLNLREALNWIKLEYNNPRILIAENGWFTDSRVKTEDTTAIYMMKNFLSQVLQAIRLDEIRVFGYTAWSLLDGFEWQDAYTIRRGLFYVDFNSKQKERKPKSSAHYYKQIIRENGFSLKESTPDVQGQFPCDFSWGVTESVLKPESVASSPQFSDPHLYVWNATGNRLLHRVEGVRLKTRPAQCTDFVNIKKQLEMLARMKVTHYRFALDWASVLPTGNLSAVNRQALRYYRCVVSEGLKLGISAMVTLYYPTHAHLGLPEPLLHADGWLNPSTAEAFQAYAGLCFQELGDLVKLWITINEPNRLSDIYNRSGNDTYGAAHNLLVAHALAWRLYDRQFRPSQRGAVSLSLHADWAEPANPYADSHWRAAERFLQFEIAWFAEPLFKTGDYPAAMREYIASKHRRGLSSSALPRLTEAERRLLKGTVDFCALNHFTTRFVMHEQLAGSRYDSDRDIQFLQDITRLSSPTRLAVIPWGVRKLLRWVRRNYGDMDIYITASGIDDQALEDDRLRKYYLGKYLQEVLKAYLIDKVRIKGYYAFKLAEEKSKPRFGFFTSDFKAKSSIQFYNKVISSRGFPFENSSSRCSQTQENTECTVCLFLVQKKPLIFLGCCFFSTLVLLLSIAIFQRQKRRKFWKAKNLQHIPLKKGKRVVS
Procedure: (§1) Studies were performed in order to localize the binding site on human KLB of anti-beta klotho antibodies in the 5H23 epitope bin, including 5H23 as described in Example 3, with sequences shown in Tables 1-10 and FIGS. 1-3, and human anti-beta klotho antibodies in the 5H23 epitope bin, such as humanized 5H23 antibodies (e.g., VH SEQ ID NO: 271 and VL SEQ ID NO: 276). For example, FACS-based binding assays for domain mapping were performed on Expi293 cells (Life Technologies, A14635) that were transiently transfected with plasmids encoding variants of KLB: human, mouse, cynomolgus, a chimeric version in which the KL1 domain sequence of mouse KLB (M1-F506) replaces the KL1 domain of human KLB (M1-F508) to create mouse-human KLB (SEQ ID NO: 376), and a second chimera in which the human KL1 sequence (M1-F508) replaces the KL1 domain of mouse KLB (M1-F506) to create human-mouse KLB (SEQ ID NO: 374). Additionally, the expression vector pYD7 harboring no KLB sequence was transfected as a negative control.
(§2) In some studies, binding of a purified sample of a humanized 5H23 antibody (e.g., VH SEQ ID NO: 271 and VL SEQ ID NO: 276) to KLB variants was determined by FACS analysis. […] After washing with PBS/1% BSA/0.1% azide, transfected cells were then co-incubated with labeled anti-human Fc (Jackson lmmunoresearch) for 30 minutes at 4° C. After washing with PBS/1% BSA/0.1% azide, cells were acquired on flow cytometer (FACS Calibur) and analyzed by cytometric software (FlowJo). To display the resulting data, graphs plotting the number of cells as a function of fluorescence intensity were generated, and the median fluorescence intensity (MFI) was determined for each sample as shown in Table 30.

[2] = biological target: T2, cynomolgus beta klotho expressed on cells (cynomolgus monkey (Macaca fascicularis), UniProt Q86Z14 1-1044 (human entry)); assay: FACS on transfected Expi293 cells
T2 construct: also called Cynomolgus KLB
T2 chain: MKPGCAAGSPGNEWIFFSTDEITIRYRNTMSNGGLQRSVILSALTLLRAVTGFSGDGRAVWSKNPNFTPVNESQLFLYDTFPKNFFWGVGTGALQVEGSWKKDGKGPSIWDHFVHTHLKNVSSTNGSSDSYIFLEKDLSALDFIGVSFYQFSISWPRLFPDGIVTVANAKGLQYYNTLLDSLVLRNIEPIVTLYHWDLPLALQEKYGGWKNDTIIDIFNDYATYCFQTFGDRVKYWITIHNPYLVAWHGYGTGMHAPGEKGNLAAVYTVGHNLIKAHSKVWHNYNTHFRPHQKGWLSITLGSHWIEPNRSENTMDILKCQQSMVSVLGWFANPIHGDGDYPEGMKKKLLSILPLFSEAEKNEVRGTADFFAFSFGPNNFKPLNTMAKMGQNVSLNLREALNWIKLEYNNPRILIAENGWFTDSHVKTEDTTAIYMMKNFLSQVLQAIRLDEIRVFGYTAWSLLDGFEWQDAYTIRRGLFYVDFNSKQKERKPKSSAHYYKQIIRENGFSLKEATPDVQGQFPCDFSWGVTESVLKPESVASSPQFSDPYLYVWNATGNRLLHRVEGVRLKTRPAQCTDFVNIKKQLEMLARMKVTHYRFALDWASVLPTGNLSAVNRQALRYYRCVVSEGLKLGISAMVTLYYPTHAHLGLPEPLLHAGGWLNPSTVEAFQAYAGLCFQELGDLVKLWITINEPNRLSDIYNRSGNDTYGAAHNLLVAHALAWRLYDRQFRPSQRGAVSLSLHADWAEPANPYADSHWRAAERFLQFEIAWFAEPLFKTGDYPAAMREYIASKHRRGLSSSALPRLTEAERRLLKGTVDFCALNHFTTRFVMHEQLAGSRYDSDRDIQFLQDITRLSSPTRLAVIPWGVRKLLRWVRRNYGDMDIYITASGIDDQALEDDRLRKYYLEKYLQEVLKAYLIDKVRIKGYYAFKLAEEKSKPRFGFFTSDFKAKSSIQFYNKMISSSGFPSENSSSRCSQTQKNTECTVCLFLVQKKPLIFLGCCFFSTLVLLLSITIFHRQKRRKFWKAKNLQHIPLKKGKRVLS
Procedure: as §1, §2

B1: negative control antibody, anti-keyhole limpet hemocyanin (KLH) antibody (antibody, human IgG1, kappa, V domains shown)
VH: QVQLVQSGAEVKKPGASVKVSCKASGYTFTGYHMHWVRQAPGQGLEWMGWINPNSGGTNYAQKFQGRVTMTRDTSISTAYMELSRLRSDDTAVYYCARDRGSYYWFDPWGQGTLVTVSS
VL: DIQMTQSPSSLSASVGDRVTITCRASQGIRNDLGWYQQKPGKAPKRLIYAASSLQSGVPSRFSGSGSGTEFTLTISSLQPEDFATYYCLQHNSYPLTFGGGTKVEIKR
notes: also called Neg; Control; anti-KLH antibody
binding result [1]: no binding (tested: 1 µg/ml)
binding result [2]: no binding (tested: 1 µg/ml)
